{
  "source": "paper PMC3622925",
  "molecular_target": "Trichomonas vaginalis virus 1 strain UH9 coat protein (Trichomonas vaginalis virus 1 (TVV1), strain UH9)",
  "test": "cryo-EM structure",
  "data": [
    {"substance": "Trichomonas vaginalis virus 1 strain UH9 coat protein (natural protein)", "values": [
      {"measurement": "stoichiometry N (subunits per capsid)", "value": 120}
    ]}
  ]
}
